According to US10677782B2, “Methods of determining interferon having direct inhibitory effects on tumors and uses thereof” (SUPERLAB FAR EAST LIMITED, priority 2013, dated 2020):

Tests used:
[1] = Tolerability and body weight of tumor-bearing mice, Example 1; type: in vivo, BALB/cA nu/nu mice; conditions: 0.05-0.15 mg/mouse i.t. every other day, 21 days
Source text: The animals used were 4-6 weeks old male BALB/cA nu/nu mice, weighing about 23±2 g, obtained from the Shanghai Institute of Materia Medica (Shanghai, P.R. China). The study protocol was reviewed by the Committee on the Use and Care of Animals of Shanghai Institute of Materia Medica for compliance with regulations, and Committee approval was obtained prior to study initiation. Wherever possible, procedures used in this study were designed to avoid or minimize discomfort, distress, and pain to the animals. Animals that experience severe or chronic pain or distress that could not be relieved were painlessly euthanized, in accordance to regulations. Animals were housed 6 to a cage. They were ear-marked with ear hole punch identification. The room temperature was maintained at 25° C.±1° C. Lighting was set at 12 hr on and 12 hr off. Food was provided ad libitum. City tap water, filtered with a 5 micrometer (μm) filter, was provided to the animals ad libitum via water bottles.
Animals were assigned to treatment groups randomly. Initially, all animals were placed in one large animal cage. For assignment to the study, they were later separately housed, with 6 animals per cage per treatment group. […] Tumor growth was monitored by measuring the length and width of each tumor twice a week during the course of the study. […]

[2] = Tolerability and body weight of tumor-bearing mice, Example 4; type: in vivo, BALB/cA nu/nu mice; conditions: 0.05 mg/mouse i.t. every other day; day 17; reasons unknown
Experimental: Animals were assigned to treatment groups randomly. Initially, all animals were placed in one large animal cage. For assignment to the study, they were later separately housed, with 6 animals per cage per treatment group. Groups 1 and 2 are Control groups in which the animals were each administered the vehicle every other day after the first treatment. […] The animals in Groups 4, 5 and 6 were each given rSIFN-co every other day after the first treatment at 0.15 mg/mouse (Group 4) or 0.10 mg/mouse (Group 5) or 0.05 mg/mouse (Group 6), respectively. Tumor growth was monitored by measuring the length and width of each tumor twice a week during the course of the study. Each animal was also weighed twice a week during the course of the study.
The study was conducted as in Example 3, except as specifically indicated otherwise. Human xenografts for injection into the test animals were first established and prepared in a similar manner as in Example 1, but by inoculating 2.5×10^6 SPC-A4 cells subcutaneously (s.c.) in nude mice and passaging the well-grown tumors twice in nude mice. The 1.5 mm^3 fragments were then used for s.c. implantation into the test animals. The body weight of the animals averaged 22±2 g at dose initiation. In contrast to Example 3, the animals used in this study were all male and the study was conducted over a 21 day treatment period.

[3] = test system: human lung cancer SPC-A4 xenografts; experiment: Human lung cancer SPC-A4 xenografts in nude mice (Example 4); type: in vivo; conditions: for TV (mm^3, mean ± SD) (D0): day 0, start of treatment; for TV (mm^3, mean ± SD) (D21): day 21
Experimental: (§1) Before commencement of this study, the xenografts were passaged twice in nude mice. Under sterile conditions, well-grown tumors were cut into 1.5 mm^3 fragments and one such fragment was injected by trocar needle into the right flank of each study animal. […] Individual tumor size (length and width) was measured twice per week with microcalipers. Tumor volume (V) was calculated using the formula: V=(length×width^2)/2. Individual relative tumor volume (RTV) was calculated using the formula: RTV=Vt/V0, where Vt is the tumor volume on the day of measurement and V0 is the tumor volume on the day of first treatment. Therapeutic effect of the test article or control article was expressed in terms of TIC (%), using the formula: TIC (%) (mean RTV of the treated group/mean RTV of the control group)×100%; and in terms of % Inhibition, using the formula: % Inhibition=100%−T/C %.
The 1.5 mm^3 fragments were then used for s.c. implantation into the test animals.

SW620 tumor cells = experiment: Cell viability over 1-6 days, MTT assay; type: cell-based, human; conditions: 10 μg/ml
Experimental: The cell survival rate was evaluated in a standard MTT assay (3-(4,5-dimethylthiazol-2-yl)-2,5-diphenyltetrazolium bromide assay, Sigma, St. Louis, Mo.). For the assay, about 20 μl MTT (at 4 mcg/ml) was added to each well. The cells were incubated at 37° C. for 4 hr. After that, the supernatant of each well was drawn off carefully and then an equal volume (150 microliter) of dimethyl sulfoxide (DMSO) was added to each well and mixed thoroughly on a shaker for 15 min. The absorbance from the plates was read at 595 nm with a Thermo Scientific Microplate Reader (Thermo Fisher Scientific Inc., Lowell, Mass.). The relative cell viability was calculated as follows: Cell viability=(Treated group(OD595) minus blank(OD595))/(Control group(OD595) minus blank(OD595))×100%.

[4] = test system: phosphorylation of STAT1 (Tyr701), STAT2 (Tyr690), STAT3 (Tyr705) in A549 cells; experiment: STAT phosphorylation by Western Blot; type: cell-based, human; conditions: 10 μg/ml; 0, 5, 15, 30, 60, 120 and 240 minutes
Source text: (§2) After treatment, the cells were collected, cellular proteins were extracted and loaded onto SDS-PAGE […] for Western Blot analysis to observe the phosphorylation of STAT1 (Tyr701), STAT2 (Tyr690), and STAT3(Tyr705). GAPDH was used as a loading control.
(§3) The primary antibodies used were: STAT1 (1:1000, Cat #: 9175S), Tyr701 phosphorylated-STAT1 (1:1000, Cat #: 9167S), STAT2 (1:500, Cat #4594), Tyr690 phosphorylated-STAT2 (1:1000, Cat #: 441S), STAT3 (1:1000, Cat #: 9132), Tyr705 phosphorylated-STAT3 (1:1000, Cat #: 9145S). Anti-mouse (Cat #: sc-2005) or rabbit (Cat #: sc-2004) or goat (Cat #: sc-2020) HRP-conjugated secondary antibodies (Santa Cruz Technology, Santa Cruz, Calif.) were used at concentrations of 1:2000. Blots were visualized by use of Luminescence/Fluorescence Imaging LAS4000 System (GE Healthcare Life Sciences, USA) with super signal west pico chemiluminescnet substrate kit (Thermo Scientific, USA).

[5] = test system: phosphorylation of STAT1 (Tyr701), STAT2 (Tyr690), STAT3 (Tyr705) in Hela cells; experiment: STAT phosphorylation by Western Blot; type: cell-based, human; conditions: 10 μg/ml; 0, 5, 15, 30, 60, 120 and 240 minutes
Source text: as §2, §3

[6] = test system: Human Cervical Cancer Hela Xenografts; experiment: Human cervical cancer Hela xenografts in nude mice (Example 2); type: in vivo; conditions: for TV (mm^3, mean ± SD) (D0): day 0, start of treatment; for TV (mm^3, mean ± SD) (D28): day 28
Experimental: as §1
Then 1.5 mm^3 fragments were prepared for s.c. implantation into the animals.

[7] = test system: beta-catenin protein level in SW480 cells; experiment: Beta-catenin protein level by Western Blot; type: cell-based, human; conditions: 10 mcg/ml, 72 hours
Experimental: (§4) Cancer cells, A549 and Sw480, were cultured to about 85% confluency and put into 6 well plates. The cells were treated with either 10 mcg/ml IFNα-2b or rSIFN-co or left untreated as control (Mock) for 24 hr, 48 hr, or 72 hr, respectively. After treatment, the cells were harvested for Western Blot to detect the beta-catenin protein level, using its specific antibody, with GAPDH as endogenous loading control. The experiment was conducted in triplicate.
(§5) To determine the expression of various proteins, cells were harvested from the plates and total cellular protein were extracted using extraction reagents (Cat #: P0013) according to the manufacturer's protocol (Beyotime, China). The total protein concentration was determined by the Lowry Protein Assay kit (Bio-Rad, USA). […] The membranes were blocked with 5% skimmed milk, bovine serum albumin, 10 mmol/L Tris-HCl at pH 8.0, 150 mmol/L NaCl, and 0.05% Tween 20 overnight at 4° C. The blocked membranes were then incubated with primary antibodies (1:1000 dilutions), followed by secondary HRP-conjugated antibodies. Blots were visualized using Luminescence/Fluorescence Imaging LAS4000 System (GE Healthcare Life Sciences, USA) with super signal west pico chemiluminescent substrate kit (Thermo scientific, USA).
(§6) For this determination, the primary antibodies used were mouse monoclonal anti-beta-catenin antibodies (1:1000; Santa Cruz Technology, Santa Cruz, Calif.) and mouse monoclonal anti-GAPDH antibodies (1:2000) (Kangwei Biotechnology, China). Anti-mouse HRP-conjugated secondary antibodies (Santa Cruz Technology, Santa Cruz, Calif.) were used at concentrations of 1:2000.

[8] = test system: beta-catenin protein level in A549 cells; experiment: Beta-catenin protein level by Western Blot; type: cell-based, human; conditions: 10 mcg/ml
Experimental: as §4, §5, §6

[9] = 0.05 mg/mouse i.t. every other day
[10] = 0.10 mg/mouse i.t. every other day
[11] = 0.15 mg/mouse i.t. every other day

B1: rSIFN-co: Recombinant super-compound interferon; amino acid sequence SEQ ID NO: 1 (same as interferon alfacon-1), encoded by SEQ ID NO: 2, novel tertiary structure (protein)
chain: MCDLPQTHSLGNRRALILLAQMRRISPFSCLKDRHDFGFPQEEFDGNQFQKAQAISVLHEMIQQTFNLFSTKDSSAAWDESLLEKFYTELYQQLNDLEACVIQEVGVEETPLMNVDSILAVKKYFQRITLYLTEKKYSPCAWEVVRAEIMRSFSLSTNLQERLRRKE
modifications: Amino acid sequence of recombinant interferon
Q: Which “tolerability: signs of toxicity or weight loss” value [1] does the source give for B1 here?
A: The value was “no signs of toxicity or weight loss”.

Q: What about the deaths [2] of the same molecule?
A: Its deaths is “one mouse”.

Q: And the “TV (mm^3, mean ± SD) (D0)” value [3, 9]?
A: Its value is 170 ± 41 mm^3.

Q: What about the “TV (mm^3, mean ± SD) (D21)” value [3, 9] of the same molecule?
A: Its value is 2244 ± 1043 mm^3.

Q: And the “TV (mm^3, mean ± SD) (D0)” value [3, 10]?
A: Its value is 168 ± 49 mm^3.

Q: And the “TV (mm^3, mean ± SD) (D21)” value [3, 10]?
A: Its value is 2388 ± 1544 mm^3.

Q: What about the “TV (mm^3, mean ± SD) (D0)” value [3, 11] of the same molecule?
A: The value was 169 ± 40 mm^3.

Q: And the “TV (mm^3, mean ± SD) (D21)” value [3, 11]?
A: Its value is 2284 ± 653 mm^3.

Q: And the “cell viability, time dependent effect” value (SW620 tumor cells)?
A: The value was “strongly decreased cell viability of SW620 cells in a time-dependent manner”.

Q: What about the “phosphorylation patterns for STAT1, STAT2 and STAT3” value [4] of the same molecule?
A: Its value is “behaved similarly in their phosphorylation patterns for STAT1, STAT2 and STAT3”.

Q: And the “phosphorylation patterns for STAT1, STAT2 and STAT3” value [5]?
A: The value was “behaved similarly in their phosphorylation patterns for STAT1, STAT2 and STAT3”.

Q: And the “TV (mm^3, mean ± SD) (D0)” value [6, 9]?
A: Its value is 135 ± 26 mm^3.

Q: And the “TV (mm^3, mean ± SD) (D28)” value [6, 9]?
A: Its value is 886 ± 232 mm^3.

Q: What about the “TV (mm^3, mean ± SD) (D0)” value [6, 10] of the same molecule?
A: Its value is 135 ± 28 mm^3.

Q: What about the “TV (mm^3, mean ± SD) (D28)” value [6, 10] of the same molecule?
A: The value was 865 ± 186 mm^3.

Q: What about the “TV (mm^3, mean ± SD) (D0)” value [6, 11] of the same molecule?
A: Its value is 136 ± 25 mm^3.

Q: And the “TV (mm^3, mean ± SD) (D28)” value [6, 11]?
A: The value was 1025 ± 400 mm^3.

Q: And the beta-catenin protein level [7]?
A: The beta-catenin protein level was “Decrease in beta-catenin protein level in the SW480 cells was obvious”.

Q: What about the beta-catenin protein level ([8]; 48 hr) of the same molecule?
A: Its beta-catenin protein level is “dramatically decreased”.

Q: And the beta-catenin protein level ([8]; 72 hr)?
A: The beta-catenin protein level was “Further decrease”.
